Consider 5 molecules from patent publication US20150218285A1 (TORAY INDUSTRIES, published 2015).

In test [1] the target is T1, polypeptide set forth in SEQ ID NO: 431 (human).
T1 peptide: VERVFQSNYFDSTHNH
In words: ELISA on immobilised synthetic CAPRIN-1 peptides, culture supernatant. In general terms: ELISA stands for enzyme-linked immunosorbent assay.

In test [2] the target is T2, CAPRIN-1 protein on the cell surface of human cancer cells (human, UniProt Q14444 2-709).
T2 construct: whole, on cells; endogenous protein of human cancer cell lines
T2 sequence (looked up): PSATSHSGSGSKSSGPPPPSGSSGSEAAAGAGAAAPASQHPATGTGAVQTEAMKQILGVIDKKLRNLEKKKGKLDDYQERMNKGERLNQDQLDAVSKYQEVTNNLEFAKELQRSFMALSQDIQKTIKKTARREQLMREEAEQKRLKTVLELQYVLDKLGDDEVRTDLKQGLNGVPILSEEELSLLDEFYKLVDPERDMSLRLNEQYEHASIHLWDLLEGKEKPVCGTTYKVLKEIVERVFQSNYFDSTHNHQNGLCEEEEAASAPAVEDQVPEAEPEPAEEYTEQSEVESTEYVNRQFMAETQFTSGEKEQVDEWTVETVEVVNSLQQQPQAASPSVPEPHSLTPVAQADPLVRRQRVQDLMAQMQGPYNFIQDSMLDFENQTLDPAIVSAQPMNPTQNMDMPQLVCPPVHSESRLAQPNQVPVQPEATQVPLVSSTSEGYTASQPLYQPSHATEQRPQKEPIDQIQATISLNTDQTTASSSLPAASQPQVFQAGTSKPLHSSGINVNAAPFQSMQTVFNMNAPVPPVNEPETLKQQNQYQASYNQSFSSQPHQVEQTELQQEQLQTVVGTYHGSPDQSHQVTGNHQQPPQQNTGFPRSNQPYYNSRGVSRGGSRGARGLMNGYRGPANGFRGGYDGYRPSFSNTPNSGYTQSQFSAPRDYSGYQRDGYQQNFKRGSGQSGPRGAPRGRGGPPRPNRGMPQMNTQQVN
In words: flow cytometry on Hep3B, HepG2, SK-Hep-1, SW480; antibody 20 ug/mL; control: secondary antibody only. The method, then: Four human liver cancer cell lines (Hep3 GB, HepG2, SK-Hep-1, and SW480) were investigated whether or not a CAPRIN-1 protein is expressed on the cell surface using mouse anti-CAPRIN-1 monoclonal antibodies #30 to #36. 5×10⁵ cells of each of the liver cancer cell lines were centrifuged with a 1.5-mL micro centrifugation tube. The cells were subjected to reaction with each of mouse anti-CAPRIN-1 antibodies #30 to #36 at a final concentration of 20 μg/mL, followed by being left to stand on ice for 1 hour. After washing with PBS, the cells were reacted with a 100-fold diluted Alexa488-labeled goat anti-mouse IgG antibody (manufactured by Invitrogen Corporation), followed by being left to stand on ice for […]. After washing with PBS, the fluorescence intensity was measured with FACS Calibur available from Becton, Dickinson and Company. Separately, the cells were subjected to reaction with only the secondary antibody as a negative control.

Test [3] has as its target T3, polypeptide set forth in SEQ ID NO: 430 (human).
T3 peptide: ATQVPLVSSTSEGYTA
As to the kind of experiment: ELISA on 93 synthetic CAPRIN-1 peptides, purified antibody 0.1 ug/mL. As to the method:
Candidate peptides (93 peptides) each consisting of 12 to 16 amino acids of the amino acid sequence of the human CAPRIN-1 protein were synthesized and were each dissolved at a concentration of 1 mg/mL in DMSO. Each peptide was dissolved at a concentration of 30 μg/mL in a 0.1 M sodium carbonate buffer (pH 9.6). The solution was added to a 96-well plate (manufactured by Nunc, Product No. 436006) at 100 μL per well, followed by being left to stand at 4° C. overnight. The solution was removed, and 200 μL of 10 mM ethanolamine/0.1 M sodium carbonate buffer (pH 9.6) was added to each well, followed by being left to stand at room temperature for 1 hour. The solution was removed, and each well was washed with PBS containing 0.5% Tween 20 (PBST) twice to prepare a peptide-immobilized plate. For confirmation, this plate was also provided with a well to which the CAPRIN-1 protein was immobilized in accordance with the method described above. Rabbit anti-CAPRIN-1 monoclonal antibody #1 purified to a concentration of 0.1 ug/mL by a usual method was added to the plate at an amount of 50 μL per well, followed by shaking at room temperature for 1 hour. The solution was removed, and each well was washed with PBST three times. […] The absorbance was measured at 450 nm and 595 nm with an absorption spectrometer. […]

The target of test [4] is T3, polypeptide set forth in SEQ ID NO: 430. In words: ELISA as in Example 13(1), purified antibody.
Test [5] deals with T4, polypeptide comprising the amino acid sequence set forth in SEQ ID NO: 269 (human).
T4 peptide: PPVNEPETLKQQNQYQAS
As to the kind of experiment: ELISA on immobilised synthetic CAPRIN-1 peptides, culture supernatant.

Test [6] concerns the target T2, CAPRIN-1 protein on the cell surface of …. In words: cell-based or functional assay.
Test [7] has the same target. In words: flow cytometry on Hep3B, HepG2, SK-Hep-1, SW480; culture supernatant; vs isotype control. As to the method: Subsequently, four liver cancer cell lines (Hep3 GB, HepG2, SK-Hep-1, and SW480), which were confirmed to express a CAPRIN-1 gene, were investigated for whether or not a CAPRIN-1 protein is expressed on the surfaces of these cells. 1×10⁶ cells of each cell line were centrifuged with a 1.5-mL micro centrifugation tube. To the cells was added the culture supernatant (100 μL) containing any of mouse monoclonal antibodies #1 to #22 against a CAPRIN-1 protein reacting to cancer cell surface produced in Example 4 and mouse-chicken chimeric antibodies #1 to #3 against a CAPRIN-1 protein produced in the above (2), followed by being left to stand on ice for 1 hour. After washing with PBS, the cells were suspended in a FITC-labeled goat anti-mouse IgG antibody (manufactured by Invitrogen Corporation) diluted by 500-fold with PBS containing 0.1% FBS, followed by being left to stand on ice for 1 hour. After washing with PBS, the fluorescence intensity was measured with FACS Calibur available from Becton, Dickinson and Company. Separately, as a control, the same procedure as in above was performed using an iso-type control antibody, instead of the culture supernatants containing the mouse monoclonal antibodies #1 to #22 against a CAPRIN-1 protein and the mouse-chicken chimeric antibodies #1 to #3. As a result, the fluorescence intensity in the cells to which any of the monoclonal antibodies #1 to #22 and the mouse-chicken chimeric antibodies #1 to #3 was added was 20% or more higher than that in the control in every case. Specifically, in the case of using mouse-chicken chimeric antibody #1, the fluorescence intensity was enhanced by 200% or more in both SK-Hep-1 and Hep3B. […] The rate of increase in the fluorescence intensity is represented by the rate of increase in the mean fluorescence intensity (MFI value) in each cell and is calculated by the following calculation formula: […]
Background: In flow cytometry, cells or beads pass a laser one at a time.

Test [8] addresses T5, peptide set forth in SEQ ID NO: 268 (human).
T5 peptide: FTSGEKEQVDEW
In words: ELISA on immobilised synthetic CAPRIN-1 peptides, culture supernatant.

Test [9] deals with T6, polypeptide set forth in SEQ ID NO: 266 (human).
T6 construct: identified by ELISA on synthetic 12-16 aa peptides of human CAPRIN-1
T6 peptide: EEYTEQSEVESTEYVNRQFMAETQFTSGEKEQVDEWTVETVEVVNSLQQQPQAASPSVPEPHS
The description is as above.

B1: mouse anti-CAPRIN-1 antibody #34 (antibody, V domains shown)
VH: GAELVRPGTSVKVSCKASVYAFTNYLIEWVKQRPGQGLEWIGVINPKSGGTKYNEKFRGKATLTADKSSSTAYMQLSSLTSGDSAVYFCAITGTDYWGQGTTLTVSS
VL: QGTRCDIQMTQTTSSLSASLGDRVTISCSASQGINNYLNWYQQKPDGTVKLLIYYTSSLRSGVPSRFSGSGSGTDYSLTISNLEPEDVATYYCQQYSKLPRTFGGGTKLEIKR
notes: mouse hybridoma antibody; also called mouse anti-CAPRIN-1 monoclonal antibody #34; mouse anti-CAPRN-1 antibody #34
On to B1, for which, in test [1], the binding result was “binds”. In addition, the “increase in fluorescence intensity over the control” value in test [2] is at least 35%.

B2: rabbit anti-CAPRIN-1 monoclonal antibody #1 (antibody, V domains shown)
VH: QSLEESGGDLVKPGASLTLTCTASGFSFSGSYYMSWVRQAPGKGLEWIAYIYIGDGVTAYANWAKGRFTISKASSTTVTLQMTSLTAADTATYFCARGNKLWGPGTLVTVSS
VL: DVVMTQTPASVEAAVGGTVTIKCQASQSISSYLAWYQQKPGQPPKRLIYDASNLDSGVPSRFKGSGSGTDFTITISDLECADAATYYCQCTAVSSATIYGNAFGGGTEVVVK
notes: rabbit hybridoma antibody
Take B2: the binding result in test [3] was “binds”.

B3: human-rabbit chimeric anti-CAPRIN-1 antibody #1 (antibody, V domains shown)
VH: B2 VH
VL: B2 VL
notes: also called human-rabbit chimeric anti-CAPRIN-1 monoclonal antibody #1
Take B3: the binding result in test [4] was “binds”.

B4: human-chicken chimeric antibody #3 (antibody, human IgG1, kappa, V domains shown)
VH: AVTLDESGGGLQTPGGALSLVCKASGFTFSGYDMLWVRQAPGKGLEWVAGIGSTGGGTDYGAAVKGRATISRDNGQSTVRLQLNNLRAEDTATYYCAKVAGGCNSGYCRDSPGSIDAWGHGTEVIVSA
VL: AVTQQPASVSANPGETVKITCSGGGSRNYYGWYQQKSPGSVPVTVIYYDDQRPSNIPSRFSGALSGSTSTLTITGVQADDEAVYFCGSADSNTYEGSFGAGTTLTVLT
notes: produced similarly to human-chicken chimeric antibody #1 from chicken monoclonal antibody #3; human IgG1 constant domains; also called human-chicken chimeric monoclonal antibody #3
As to B4, the binding result in [5] is listed as “binds”. The “cytotoxicity (ADCC, 51Cr release) on SK-Hep-1” value in test [6] was at least 12%.

B5: mouse monoclonal antibody #5 (antibody, V domains shown)
VH: DAELVKPGASVKISCKASGYTFTDHSIHWVQQKPEQGLEWIGYISPGNGNIKYNEKFKGKATLTADKSSSTAYMQLNSLTSEDSAVYFCKRSLGRGGPYYFDYWGQGTTVTVSS
VL: DIVLTQAAPSLPVTPGESVSISCRSSKSLLHSNGNTYLYWFLQRPGQSPQLLIYRMSNLASGVPDRFSGSGSGTAFTLRISRVEAEDVGVYYCMQHREYPVTFGSGPN
notes: mouse hybridoma antibody
In the case of B5, the “rate of increase in mean fluorescence intensity” value in [7] was at least 20%. Further, the binding result in test [8] and in test [9] was “binds” each time. For the same molecule, the “cytotoxicity (ADCC, 51Cr release) on SK-Hep-1” value in test [6] was at least 12%.
